In US20250000991A1 (Eli Lilly, published 2025):
Where a chain is given by its changes, count along the chain named.

T1: human Nectin-4-eGFP on T24 cells (clone 3) (human, UniProt Q96NY8 32-510)
T1 sequence: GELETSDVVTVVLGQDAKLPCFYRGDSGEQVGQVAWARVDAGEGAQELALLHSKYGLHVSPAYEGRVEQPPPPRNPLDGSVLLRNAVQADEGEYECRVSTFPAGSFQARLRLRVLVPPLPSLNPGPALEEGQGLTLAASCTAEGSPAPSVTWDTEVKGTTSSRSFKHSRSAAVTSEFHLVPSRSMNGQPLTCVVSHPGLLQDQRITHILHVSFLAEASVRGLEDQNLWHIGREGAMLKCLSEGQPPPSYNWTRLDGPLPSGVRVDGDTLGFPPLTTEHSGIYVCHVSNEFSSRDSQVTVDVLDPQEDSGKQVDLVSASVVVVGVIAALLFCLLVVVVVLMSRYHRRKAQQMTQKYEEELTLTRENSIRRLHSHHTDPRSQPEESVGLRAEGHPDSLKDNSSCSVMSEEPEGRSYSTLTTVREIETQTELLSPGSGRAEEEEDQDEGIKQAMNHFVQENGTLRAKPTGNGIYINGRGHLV

T2: recombinant HIS-tagged human nectin-4 (Acro Biosystems Cat. No. NE4-H52H3) (human, UniProt Q96NY8 32-349)
T2 construct: Bought protein; not shown: HIS tag
T2 sequence: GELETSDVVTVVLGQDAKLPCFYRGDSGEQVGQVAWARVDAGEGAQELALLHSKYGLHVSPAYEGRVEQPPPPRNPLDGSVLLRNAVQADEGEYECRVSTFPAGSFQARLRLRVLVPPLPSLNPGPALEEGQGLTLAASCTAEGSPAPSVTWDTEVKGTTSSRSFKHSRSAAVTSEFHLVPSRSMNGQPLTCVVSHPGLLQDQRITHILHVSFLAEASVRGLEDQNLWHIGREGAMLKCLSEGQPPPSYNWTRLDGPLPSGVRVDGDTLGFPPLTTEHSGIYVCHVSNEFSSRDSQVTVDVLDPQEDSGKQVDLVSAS

T3: recombinant HIS-tagged cyno nectin-4 (Acro Biosystems Cat. No. NE4-C52H4) (cyno, UniProt A0A2K5WES1 32-349)
T3 construct: Bought protein; HIS tag not described
T3 sequence: T2 sequence with V39A, I230V

T4: recombinant HIS-tagged rat nectin-4 (R&D Systems Cat. No. 9997-N4-050) (rat, UniProt D3ZET1 31-348)
T4 construct: Bought protein; HIS tag not described
T4 sequence: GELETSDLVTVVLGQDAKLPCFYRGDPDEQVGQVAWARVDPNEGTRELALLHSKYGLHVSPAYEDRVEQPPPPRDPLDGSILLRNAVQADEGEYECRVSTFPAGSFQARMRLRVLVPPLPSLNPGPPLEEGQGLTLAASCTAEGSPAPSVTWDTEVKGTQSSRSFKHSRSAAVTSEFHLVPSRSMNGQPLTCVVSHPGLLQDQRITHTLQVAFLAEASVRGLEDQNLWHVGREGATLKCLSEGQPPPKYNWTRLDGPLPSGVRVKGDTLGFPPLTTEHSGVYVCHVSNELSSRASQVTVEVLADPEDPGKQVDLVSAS

T5: human nectin-4 on cells (human, UniProt Q96NY8 32-510)
T5 sequence: T1 sequence

B1: Ab7 (antibody, human IgG1, lambda, L234A L235A, V domains shown)
VH: QVQLVQSGAEVKKPGASVKVSCKASGYTFTNYYMHWVRQAPGQGLEWMGIINPSSGSASYAQKFQGRVTMTRDTSTSTVYMELSSLRSEDTAVYYCAREGVGRDILQAFDIWGQGTLVTVSS
VL: QSVLTQPPSVSEAPRQRVTISCSGSSSNIGNNAVNWYQQLPGKAPKLLIYYDDLLPSGVSDRFSGSKSGTSASLAISGLQSEDEADYYCAAWDDSLNGHVFGGGTKLTVLG
notes: Unconjugated antibody; also called Antibody 7; nectin-4 antibody Ab7
B2: Ab8 (antibody, human IgG1, lambda, L234A L235A, V domains shown)
VH: QVQLVQSGAEVKKPGASVKVSCKASGYTFTSYYIHWVRQAPGQGLEWMGIINPISGRTSSAQKFQGRVTMTRDTSTSTVYMELSSLRSEDTAVYYCAKEGVGGELLRAFDIWGQGTLVTVSS
VL: B1 VL with H99F
notes: Unconjugated antibody; also called Antibody 8; nectin-4 antibody Ab8
B3: Ab1a (antibody, human IgG1, kappa, L234A L235A, V domains shown)
VH: QVQLVQSGAQVKKPGASVKVSCKASGYTFTGYYIHWVRQAPGQGLEWMGWINPNSGGTNYAQKFQGRVTMTRDTSISTAYMELSRLRSDDTAVYFCAREDWDFDYWGQGTLVTVSS
VL: EIVLTQSPGTLSLSPGERATLSCRTSQSVSSSYLAWYQQKPGQAPRLLIYGASNRATDIPDRFSGSGSGTDFTLTINRLEPEDFAVYYCQQYGSSPITFGQGTRLEIKR
notes: Unconjugated antibody; also called nectin-4 antibody Ab1a
B4: Ab6 (antibody, human IgG1, lambda, L234A L235A, V domains shown)
VH: QVQLVQSGAEVKKPGASVKVSCKASGYTFTGYYMHWVRQAPGQGLEWMGIINPSGGSTTYAQKFQGRVTMTRDTSTSTVYMELSSLRSEDTAVYYCARGRLGTYFDYWGQGTLVTVSS
VL: SYVLTQPPSVSVAPGQTARITCGGNNIGSKSVHWYQQKPGQAPVLVVYDDSDRPSGIPERFSGSNSGNTATLTISRVEAGDEADYYCQVWDRSSDQVVFGGGTKLTVLG
notes: Unconjugated antibody; also called Antibody 6; nectin-4 antibody Ab6
B5: Ab6 ADC (Ab6 conjugated as in Formula XI, DAR of 8) (antibody, human IgG1, lambda, L234A L235A, V domains shown)
VH: B4 VH
VL: B4 VL
modifications: camptothecin analog linker-payload of Formula XI on cysteine thiols after full reduction, DAR of 8 per antibody; positions not given
notes: Antibody-drug conjugate of Ab6; also called Ab6 (ADC column)
B6: Ab3 (antibody, human IgG1, kappa, L234A L235A, V domains shown)
VH: EVQLVESGGGLVKPGGSLRLSCAASGFNLNHYNMNWVRQAPGKGLEWVSSVSSGGGFRYYADSVRGRFTISRDNAKNSLYLQMNSLRAEDTAVYYCARGAVFHDAFDIWGQGTLVTVSS
VL: DIQLTQSPSFLSASVGDRVTITCRASQDISSYLAWYQQKPGKAPKLLIYVASTLQSGVPSRFSGSGSGTEFTLTISSLQPEDFATYYCQQINSYPFTFGQGTKVEIKR
notes: Unconjugated antibody; also called Antibody 3; nectin-4 antibody Ab3
B7: Ab3 ADC (Ab3 conjugated as in Formula XI, DAR of 8) (antibody, human IgG1, kappa, L234A L235A, V domains shown)
VH: B6 VH
VL: B6 VL
modifications: camptothecin analog linker-payload of Formula XI on cysteine thiols after full reduction, DAR of 8 per antibody; positions not given
notes: Antibody-drug conjugate of Ab3; also called Ab3 (ADC column)
B8: Ab5 (antibody, human IgG1, kappa, L234A L235A, V domains shown)
VH: QVQLVQSGAEVKKPGASVKVSCKASGYTFTSYYVHWVRQAPGQGLEWMGIINPSIISTSYAQKFQARVTMTRDTSTSTVYMELSSLRSEDTAVYYCARGLNFDAFDIWGQGTLVTVSS
VL: B6 VL with D28G, V50A, I91L, S93N
notes: Unconjugated antibody; also called Antibody 5; nectin-4 antibody Ab5
B9: Ab4 (antibody, human IgG1, kappa, L234A L235A, V domains shown)
VH: QVQLQESGPGLVKPSETLSLTCTVSGGSISGYYWSWIRQPPGKGLEWIGYIYYSGSTNYNPSLKSRVTISVDTSKNQFSLKLSSVTAADTAVYYCARLGIFFDAFDIWGQGTLVTVSS
VL: B6 VL with D28G, V50A, I91F, F96W
notes: Unconjugated antibody; also called Antibody 4
B10: Ab4 ADC (Ab4 conjugated as in Formula XI, DAR of 8) (antibody, human IgG1, kappa, L234A L235A, V domains shown)
VH: B9 VH
VL: B6 VL with D28G, V50A, I91F, F96W
modifications: camptothecin analog linker-payload of Formula XI on cysteine thiols after full reduction, DAR of 8 per antibody; positions not given
notes: Antibody-drug conjugate of Ab4; also called Ab4 (ADC column)

Biological target: T1, human Nectin-4-eGFP on T24 cells (clone …)
Assay: cell-based or functional assay

% activity (max GFP signal loss compared to enfortumab mAb (100%)) | EC50 (nM) of nectin-4-eGFP signal loss | Binder
66.5% | 3.37 nM | B1
53.7% | 3.68 nM | B2
145% | 2.54 nM | B3
65.1% | 41.4 nM | B4
118% | 2.26 nM | B5
64.4% | 1.3 nM | B6
136% | 2.68 nM | B7
40.1% | 2.69 nM | B8
40.9% | 0.41 nM | B9
143% | 2.1 nM | B10

Biological target: T2, recombinant HIS-tagged human nectin-4 …
Assay: SPR Biacore 8K+, ADC captured via anti-human Fc, nectin-4 analyte, 37 C;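 also: Nectin-4 injected over captured ADC at 0 to 600 nM for 2 min association, then 10 min dissociation, with a reference flow cell lacking ADC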

Kd | koff | kon | Binder
91.8 nM | 0.163 s⁻¹ | 1.78e+06 M⁻¹ s⁻¹ | B5
1.03 nM | 0.000437 s⁻¹ | 424000 M⁻¹ s⁻¹ | B7
204 nM |  |  | B10

Biological target: T3, recombinant HIS-tagged cyno nectin-4 …
Assay: as above

Kd | koff | kon | Binder
0.986 nM | 0.000426 s⁻¹ | 432000 M⁻¹ s⁻¹ | B7

Biological target: T4, recombinant HIS-tagged rat nectin-4 …
Assay: as above

Kd | koff | kon | Binder
114 nM | 0.105 s⁻¹ | 925000 M⁻¹ s⁻¹ | B5
5.28 nM | 0.000903 s⁻¹ | 171000 M⁻¹ s⁻¹ | B7

Biological target: T5, human nectin-4 on cells
Assay: cell-based or functional assay

Binder | Cytotoxicity IC50, NCI H1781 cells | Cytotoxicity IC50, T24 Nectin-4 clone 108 cells
B5 | 0.0608 nM | 0.0783 nM
B7 | 0.0553 nM | 0.0825 nM
B10 | 0.311 nM | 0.115 nM

Biological target: T5, human nectin-4 on cells
Assay: flow cytometry, SUM190PT cells (high endogenous nectin-4)

% of enfortumab (Average Max MFI) | Average Max MFI | EC50 | Binder
112% | 1.2e+06 MFI | 0.14 nM | B1
81.9% | 8.7e+06 MFI | 0.11 nM | B2
55.6% | 590000 MFI | 0.12 nM | B3
127% | 1.3e+06 MFI | 0.17 nM | B4
112% | 1.2e+06 MFI | 0.23 nM | B6
145% | 1.5e+06 MFI | 0.31 nM | B8
97.9% | 1e+06 MFI | 0.19 nM | B9

Biological target: T5, human nectin-4 on cells
Assay: flow cytometry, NCI-H1781 cells (low endogenous nectin-4)

% of enfortumab (Average Max MFI) | Average Max MFI | EC50 | Binder
96% | 87000 MFI | 0.09 nM | B1
99.6% | 90000 MFI | 0.1 nM | B2
84.5% | 77000 MFI | 0.2 nM | B3
93.8% | 85000 MFI | 0.03 nM | B4
105% | 96000 MFI | 0.1 nM | B6
102% | 93000 MFI | 0.08 nM | B8
95.8% | 87000 MFI | 0.14 nM | B9
